Experimental data from patent US20260167714A1 (COHERUS BIOSCIENCES, published 2026).
Values belong to the binder of their own block, whether it stands above or below them.

Legend:
[1] = target: T1, human ILT4 expressed on cells (human, UniProt Q8N423 22-597); assay: cell-based or functional assay
[2] = target: T1, human ILT4 expressed on cells; assay: flow cytometry, blockade of PE-HLA-A tetramer (5 ug/ml) binding to ILT4-CHO cells, Experiment 1 (table title prints HLA-G)
[3] = target: T1, human ILT4 expressed on cells; assay: flow cytometry, blockade of PE-HLA-G tetramer binding to ILT4-CHO cells, Experiment 2
[4] = target: T1, human ILT4 expressed on cells; assay: flow cytometry on ILT4-CHO cells, unlabelled mAb titrated; competitor AF647-Hz156.03-LALA
Procedure: (§1) Competition binding assays were performed. […] Binding activities were measured by flow cytometry.
Anti-human ILT4 mAbs at various concentrations (0-15 μg/ml) were incubated with ILT4-CHO cells. Cells were washed and stained with AF647-Hz156.03-LALA. Cells were analyzed by flow cytometry.

[5] = target: T1, human ILT4 expressed on cells; assay: flow cytometry on ILT4-CHO cells, unlabelled mAb titrated; competitor AF647-Hz45.01-LALA
Procedure: as §1
Anti-human ILT4 mAbs at various concentrations (0-15 μg/ml) were incubated with ILT4-CHO cells. Cells were washed and stained with AF647-Hz45.01-LALA. Cells were analyzed by flow cytometry.

[6] = target: T1, human ILT4 expressed on cells; assay: flow cytometry, blockade of PE-HLA-A tetramer (5 ug/ml) binding to ILT4-CHO cells, Experiment 3 (table title prints HLA-G)
[7] = target: T1, human ILT4 expressed on cells; assay: flow cytometry, blockade of PE-HLA-G tetramer (5 µg/ml) binding to CHO-S/ILT4 cells, experiment 2
Procedure: (§2) In the second blocking experiment, the primary antibody dilutions were made by diluting antibody to 15 μg/ml in FACS buffer. Three independent sets of eleven 2.5-fold serial dilutions were then made in FACS buffer from 15 μg/ml to 0.002 μg/ml. Each dilution set was handled independently, and 50 μl from each was added to cells in duplicate. Control wells received FACS buffer with no antibody. Wells were mixed and incubated for 30 minutes at 4 degrees C. Cells were washed twice in FACS buffer.
(§3) In both blocking experiments, phycoerythrin (PE)-conjugated HLA-G tetramer was diluted in FACS buffer to 5 μg/ml and 100 μl per well was added to cells. Cells were incubated at 4 degrees C. for 30 minutes, washed twice in FACS buffer, and resuspended in 250 μl FACS buffer with 0.1 μg/ml propidium iodide.
(§4) Cells were acquired on an Attune flow cytometer, with 5000 propidium iodide-negative cells collected per sample, and MFI was recorded. Relative blocking activity was calculated with the following formula: 100−(Sample MFI−Background MFI)/(Top MFI−Background MFI)*100. Prism software (Graphpad) was used to plot MFI and relative blocking activity for each sample. The blocking potency for each antibody, represented as IC₅₀, was calculated with Prism software.

[8] = target: T2, recombinant human ILT4 (LILRB2) (human, UniProt Q8N423 22-460); assay: SPR, high resolution kinetics, triplicate
T2 construct: Bought protein (Acro Biosystems or R&D Systems); also called ILTR4
T2 sequence (Q8N423 other isoform, or with tags, fused parts or gaps limits assumed): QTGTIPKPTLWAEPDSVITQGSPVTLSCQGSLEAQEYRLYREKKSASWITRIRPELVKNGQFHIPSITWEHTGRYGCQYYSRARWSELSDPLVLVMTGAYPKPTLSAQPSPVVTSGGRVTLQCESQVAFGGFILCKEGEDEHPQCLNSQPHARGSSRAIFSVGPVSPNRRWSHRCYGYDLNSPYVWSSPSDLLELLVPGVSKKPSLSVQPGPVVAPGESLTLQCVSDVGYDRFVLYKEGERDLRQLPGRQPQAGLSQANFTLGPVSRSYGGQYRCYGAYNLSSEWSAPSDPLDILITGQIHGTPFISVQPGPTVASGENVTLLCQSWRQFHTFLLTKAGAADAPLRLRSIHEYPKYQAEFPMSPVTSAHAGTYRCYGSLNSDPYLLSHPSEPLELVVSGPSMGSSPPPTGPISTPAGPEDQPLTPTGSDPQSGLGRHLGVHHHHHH

[9] = target: T1, human ILT4 expressed on cells; assay: flow cytometry, blockade of PE-HLA-A tetramer (5 ug/ml) binding to ILT4-CHO cells, Experiment 2 (table title prints HLA-G)
[10] = target: T1, human ILT4 expressed on cells; assay: cell-based or functional assay; remark: listed apart in the source
[11] = target: T1, human ILT4 expressed on cells; assay: flow cytometry, blockade of PE-HLA-G tetramer binding to ILT4-CHO cells, Experiment 1
[12] = target: T1, human ILT4 expressed on cells; assay: flow cytometry, blockade of PE-HLA-G tetramer (5 µg/ml) binding to CHO-S/ILT4 cells, experiment 1
[13] = target: T1, human ILT4 expressed on cells; assay: as above; remark: listed apart in the source
[14] = target: T2, recombinant human ILT4 (LILRB2); assay: SPR, high resolution kinetics, triplicate; 95% CI in parentheses
[15] = target: T1, human ILT4 expressed on cells; assay: flow cytometry blocking assay: ILT4-expressing CHO cells preincubated with antibody, then PE-HLA-G; HLA-G binding MFI falls from about 105000 (no antibody) to near 0
Procedure: as §2, §3, §4

[16] = target: T1, human ILT4 expressed on cells; assay: flow cytometry, blockade of PE-HLA-G tetramer binding to ILT4-CHO cells, Experiment 3
[17] = target: T1, human ILT4 expressed on cells; assay: cell-based or functional assay; remark: listed apart in the source
[18] = target: T2, recombinant human ILT4 (LILRB2); assay: SPR, Biacore T200, medium resolution; koff held at its limit of 4.27e-5 s^-1; koff held at the limit, 1200 s of dissociation
Procedure: (§5) Label-free SPR analysis on a Biacore T200 instrument was utilized to measure antibody affinity to ILT4. CM4 sensor chips from Cytiva Inc. were utilized for all medium resolution analyses. Either anti-mouse Fc specific or anti-human Fc specific capture surfaces were prepared using standard amine coupling chemistry. Mouse, Chimera or Humanized mAbs were captured to their respective surfaces and ILT4 was injected across the surfaces from 101 nM to 0.79 nM in a 2-fold serial dilution series at a flow rate of 100 μL/min. The association phase was followed for 90 sec. while the dissociation phase was followed for 1200 sec. due to the medium resolution analysis implemented here. The sensorgrams were double-referenced and fit globally to a 1:1 interaction model with a term included for mass transport, and the equilibrium dissociation constant was calculated as KD=koff/kₒₙ. […] All kinetic experiments were performed at 25° C. in a buffer consisting of Hepes-buffered saline, pH 7.4, with 0.05% polysorbate 20 (HBS-P+) and 100 μg/ml Bovine Serum Albumin (BSA).

[19] = target: T2, recombinant human ILT4 (LILRB2); assay: SPR, Biacore T200, medium resolution; koff held at its limit of 4.27e-5 s^-1
Procedure: as §5

[20] = target: T2, recombinant human ILT4 (LILRB2); assay: SPR, Biacore T200, mAb captured on anti-Fc, ILT4 injected, medium resolution, 25 C
Procedure: as §5

T1 sequence (Q8N423 22-597): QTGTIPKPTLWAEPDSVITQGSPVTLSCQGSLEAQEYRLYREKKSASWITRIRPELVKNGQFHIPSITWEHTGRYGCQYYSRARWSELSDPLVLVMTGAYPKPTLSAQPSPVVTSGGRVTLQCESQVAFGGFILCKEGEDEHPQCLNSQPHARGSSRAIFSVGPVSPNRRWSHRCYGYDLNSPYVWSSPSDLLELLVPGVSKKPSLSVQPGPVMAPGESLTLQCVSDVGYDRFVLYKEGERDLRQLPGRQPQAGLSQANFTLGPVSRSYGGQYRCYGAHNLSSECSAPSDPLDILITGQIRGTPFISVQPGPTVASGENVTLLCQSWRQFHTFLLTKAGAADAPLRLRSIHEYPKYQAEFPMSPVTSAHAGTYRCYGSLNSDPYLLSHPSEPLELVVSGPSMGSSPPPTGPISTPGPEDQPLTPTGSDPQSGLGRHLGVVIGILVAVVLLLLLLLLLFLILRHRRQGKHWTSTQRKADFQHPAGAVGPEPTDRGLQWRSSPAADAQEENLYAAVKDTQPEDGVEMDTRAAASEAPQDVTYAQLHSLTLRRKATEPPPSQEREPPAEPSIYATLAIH

EC50 value of IL-6 production, donor 4 [1]: 3.74 ng/mL | EC50 value of IL-6 production, donor 5 [1]: 13.9 ng/mL | IC50 [2]: 0.102 µg/mL | IC50 [3]: 0.162 µg/mL | IC50 [4]: 0.336 µg/mL | IC50 [5]: 0.171 µg/mL | IC50 [6]: 0.0956 µg/mL | IC50 [7]: 0.075 µg/mL | Kd [8]: 5.5 nM | koff [8]: 0.00895 s⁻¹ | IC50 [9]: 0.107 µg/mL | EC50 value of TNFa production, donor 4 [10]: 8.77 ng/mL | EC50 value of TNFa production, donor 5 [10]: 23.5 ng/mL | IC50 [11]: 0.194 µg/mL | fold decrease of PE-HLA-G MFI [12]: ≤ 30 fold | IC50 [13]: 0.13 µg/mL | kon [14]: 1.62e+06 M⁻¹ s⁻¹ | IC50 [15]: 0.096 µg/mL | IC50 [16]: 0.151 µg/mL
B1: 1E1 (antibody, V domains shown)
VH: QVQLQQWGAGLLKPSETLSLTCAVYGGSFSGYYWSWIRQPPGKGLEWIGEINHSGSTNYNPSLKSRVTISVDTSKNQFSLKLSSVTAADTAVYYCARLPTRWVTTRYFDLWGRGTLVTVSS
VL: QSVLTQPPSVSGAPGQRVTISCTGSSSNIGAGYDVHWYQQLPGTAPKLLIYGNSNRPSGVPDRFSVSKSGASASLAITGLQAEDEADYYCQSFDNSLSAYVFGGGTQLTVL

IC50 [4]: 0.0796 µg/mL | IC50 [5]: 0.182 µg/mL | IC50 [7]: 0.216 µg/mL | Kd [8]: 0.85 nM | koff [8]: 0.00433 s⁻¹ | fold decrease of PE-HLA-G MFI [12]: ≤ 22 fold | IC50 [13]: 0.13 µg/mL | kon [14]: 5.11e+06 M⁻¹ s⁻¹ | IC50 [15]: 0.233 µg/mL | IL-6 secretion, fold over control, Donor A [17]: 3 fold | IL-6 secretion, fold over control, Donor B [17]: 2 fold | TNF-α secretion, fold over negative control [17]: 8 fold
B2: J19h1 (antibody, V domains shown)
VH: QITLKESGPTLVKPTQTLTLTCTFSGFSLNTYAMGVSWIRQPPGKALEWLASIWWNGNKYNNPSLKSRLTVTKDTSKNQVVLTMTNMDPVDTATYYCAHSRIIRFTDYVMDAWGQGTLVTVSS
VL: DIQMTQSPSSLSTSVGDRVTITCRASEDIYNDLAWYQQKPGKAPKLLIYNANSLHTGVASRFSGSGSGTDFTFTISSLQPEDVATYFCQQYYDYPLTFGQGTKLEIKR

koff [18]: ≤ 4.27e-05 s⁻¹ | IC50 [7]: 0.113 µg/mL | Kd [19]: ≤ 0.16 nM | kon [20]: 269000 M⁻¹ s⁻¹ | IC50 [15]: 0.088 µg/mL | IL-6 secretion by LPS-stimulated M2 macrophages (MSD), fold over control [17]: 2 fold
B3: L156S3 (antibody, IgG2a, V domains shown)
VH: QVQLKQSGAELVRPGASVKLSCRASGYTFTDYYMNWVKQRPGQGLEWIARIYPGVYRTHYNEKFKDKATLTAEKSSSTAYMELSSLTSEDSAVYFCARSGYYGGTYEEDAMDYWGQGTSVTVSS
VL: DIQMTQSPASLSVSVGETVTITCRASENIYSNLAWYQQKQGKSPQLLVYAATSLADGVPSRFRGSGSGTQYSLKISSLQSEDFGNYYCQNFWDTPYTFGGGTKLEIK
notes: also called mouse anti-human ILT4 antibody L156S3
